Patent publication US20260139017A1, “COMPOSITIONS AND METHODS USING REELIN IN ALZHEIMER'S DISEASE” (The General Hospital Corporation, priority 2022, published 2026)

Legend:
pDAB1 (Tyr232) = experiment: HRECs treated 5 minutes with recombinant mini-RELN, pDAB1 western blot; type: cell-based, human
How it was run: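 Serum-starved (2 h) HRECs at passage 7 given recombinant mini-RELN constructs or mouse Reelin at 4 ug/mL for 5 min, then lysed. Western blot of 3.5 ug lysate for pDAB1 (Tyr232) with IR detection. Value is pDAB1:total protein band ratio normalized to control.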

pDAB1 = experiment: Trans-nasal (MIND) delivery of mini-RELN in mice, brain pDAB1 western blot; type: in vivo; details: WT male mice, 72 h post-trans-nasal delivery
Text: We used a MIND procure (trans nasal delivery using Minimally Invasive Nasal Depot (MIND), Padmakumar et al., J Control Release. 2021 Mar. 10; 331: 176-186) or intraperitoneal injection to administer miniRELN constructs into mice. MIND leverages the olfactory nerve to bypass the blood brain barrier. […] Using the MIND methodology provides one method of reaching the entorhinal cortex with minimal systemic exposure. […] (Jackson Laboratory) were housed under regular light/night cycle. All procedures were conducted under approved IACUC animal protocols. Prior to incision, the nasal region was shaved and cleaned using betadine and 70% alcohol and mouse subcutaneously injected with buprenorphine HCl and meloxicam (5 mg/kg). The nasal cavity was then opened using a scalped and nasal mucosa exposed using a microdrill. Once the mucosa was exposed, gel dispersion of either PBS or mini-RELN constructs (Innovagen) in 20% Pluronic (Sigma Aldrich) was subcutaneously delivered in the surgically-generated pocket. Mice were injected with meloxicam for 3 days prior euthanasia at day 4 to collect the brain tissue used for post-mortem analysis.
Western blotting was performed as follows. 20 ug protein homogenates were prepared under reducing and denaturing conditions using Laemmli buffer enriched with 10 mM DTT and 5 min boiling. Samples were electrophoretically separated in a 4-20% Gel at 90V and protein transferred to a PVDF membrane using iBlot™ 2 Dry Blotting System. The membrane was blocked using Intercept® (TBS) Blocking Buffer for 2 hours. We detected pDAB1 (Tyr232; 1:1000, rabbit, #3325 Cell signaling), and Beta actin (1:5000, mouse, #66009-1-Ig, Proteintech). Antibodies were diluted using Intercept® (TBS) Blocking Buffer and incubated overnight at 4C under gentle shaking. Prior secondary antibody incubation, membranes were washes 2 times using TBS-T for 10 minutes. As secondary antibodies we used IR Dye 800n CW Goat-anti-Rabbit (925-32211, Licor) and IR Dye 680 CW Goat-anti-Mouse (925-68070, Licor) both diluted 1:10000 in blocking buffer for 1 h at room temperature under gentle shaking. Membranes were washed three times with TBS-T prior IR detection using Odyssey imager. To quantify the results, each band was quantified using ImageJ and data expressed as pDAB1:βActin ratio normalized to the control.

pTau S396 = experiment: Intraperitoneal mini-RELN in MAPT P301S Tau Tg mice, pTau S396 immunofluorescence; type: in vivo; details: 6 months old female MAPT P301S mice, intraperitoneal days 1-4, hippocampal and entorhinal regions, vs PBS
Experimental: The effects of systemic delivery of mini-RELN peptides was evaluated in vivo. 6 months old female MAPT P301S Tau Tg mice were injected intraperitoneally on day 1 with 500 μL and on day 2-4 with 250 μL solutions of either vehicle (PBS) or mini-RELN peptides. On Day 5, mice were euthanized with saturating concentration CO2 gas and intracardially perfused with 4% PFA. Brains were subsequently harvested and used for histological analyses.
Immunofluorescence staining of murine brains was performed as follows. 24 hours post fixation with 4% PFA at 4° C., sagittal brain sections were obtained at 1 mm thickness using a stainless-steel brain matrix. The entorhinal-hippocampal section of each brain was chosen for Clarity using Binaree® Tissue Clearing™ Kit (HRTC-012) following the kit guidelines. Sections were incubated with pTauS396 primary antibody for 72 h followed by secondary antibody: Alexa 647, and DAPI for 1 h. Subsequently, sections were imaged using confocal SP8 microscope for quantification. Fourteen images were taken at 63× magnification per group. Fluorescence intensity of pTau was quantified automatically using Matlab (2021a). Otsu's thresholding method was used to get a mask of the image signal and then the mean intensity of the signal was computed.

B1: RAP-FcIgG-CTRH3447R (protein)
chain: MYRMQLLSCIALSLALVTNSMAPRRVRSFLRGLPALLLLLLFLGPWPAASHGGKYSREKNQPKPSPKRESGEEFRMEKLNQLWEKAQRLHLPPVRLAELHADLKIQERDELAWKKLKLDGLDEDGEKEARLIRNLNVILAKYGLDGKKDARQVTSNSLSGTQEDGLDDPRLEKLWHKAKTSGKFSGEELDKLWREFLHHKEKVHEYNVLLETLSRTEEIHENVISPSDLSDIKGSVLHSRHTELKEKLRSINQGLDRLRRVSHQGYSTEAEFEEPRVIDLWDLAQSANLTDKELEAFREELKHFEAKIEKHNHYQKQLEIAHEKLRHAESVGDGERVSRSREKHALLEGRTKELGYTVKKHLQDLSGRISRARHNELTGGSGGNSAPLERKSSVECPPCPAPPVAGPSVFLFPPKPKDTLMISRTPEVTCVVVDVSHEDPEVQFNWYVDGVEVHNAKTKPREEQFNSTFRVVSVLTVVHQDWLNGKEYKCKVSNKGLPAPIEKTISKTKGQPREPQVYTLPPSREEMTKNQVSLTCLVKGFYPSDIAVEWESNGQPENNYKTTPPMLDSDGSFFLYSKLTVDKSRWQQGNVFSCSVMHEALHNHYTQKSLSLSPGARTGGGGSGGGGSSTRKQNYMMNFSRQHGLRRFYNRRRRSLRRYP
For B1, the “efficacy at RELN signaling (pDAB1) relative to comparators” value (pDAB1 (Tyr232); 5 minutes treatment) was “more effective than controls”, the pDAB1 levels (pDAB1 (Tyr232); 5 minutes, 4 ug/mL recombinant protein) was “increased pDAB1 levels” and the “pDAB1 levels in the hippocampus” value (pDAB1) was “increased”. For the same molecule, the “pDAB1 levels in the midbrain” value (pDAB1) was “increased” and the “pTau S396 fluorescence intensity” value (pTau S396) was “decreased levels of pTau S396 signaling”.
